Measurements as given in paper PMC2832190.

Target: (Ni2+-NTA)2-Cy3-His6-AGT (O6-alkylguanine-DNA alkyltransferase) (human, UniProt P16455 1-207)
Assay: FRET

(Ni2+-NTA)2-Cy3-His6-AGT (O6-alkylguanine-DNA alkyltransferase), sequence (P16455 whole entry): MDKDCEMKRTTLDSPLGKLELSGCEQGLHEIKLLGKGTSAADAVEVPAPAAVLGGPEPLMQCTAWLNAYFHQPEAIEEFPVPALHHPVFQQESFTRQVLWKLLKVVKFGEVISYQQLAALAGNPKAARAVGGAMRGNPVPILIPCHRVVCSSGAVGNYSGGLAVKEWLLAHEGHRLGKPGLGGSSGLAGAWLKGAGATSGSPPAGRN

GACTGACTGACTGACTGACTGACTGA (ssDNA) [FAM-DNA 26-mer]
apparent K (half saturation): 554000 M⁻¹
